Experiments:
[1] = molecular target: T1, CLDN1 on HREpic (PECs model) (Homo sapiens, UniProt O95832); assay: Flow cytometry binding on Human Renal Epithelial Cells (HREpic); conditions: 10 μg/mL, 24 hours after TNFα 10 ng/mL
T1 construct: Human Renal Epithelial Cells (HREpic), which are primary cell isolated from human kidney; host or cells: HREpic (Human Renal Epithelial Cells), TNFα-treated
T1 sequence (O95832 1-211): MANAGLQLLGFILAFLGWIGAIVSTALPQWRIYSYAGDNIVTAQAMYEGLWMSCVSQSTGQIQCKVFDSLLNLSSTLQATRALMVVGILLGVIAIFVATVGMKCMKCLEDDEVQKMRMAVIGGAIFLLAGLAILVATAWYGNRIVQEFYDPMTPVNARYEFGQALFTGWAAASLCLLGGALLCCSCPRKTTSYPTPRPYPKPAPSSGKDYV
Experimental: (§1) Cells. Human Renal Epithelial Cells (HREpic) were purchased from ScienCell Research Laboratories and grown in Epithelial Cell Medium according to manufacturer's instructions.
Flow cytometry. H3L3 binding and expression of human CLDN1 in HREpic was analyzed by flow cytometry 24 hours after TNFα treatment (10 ng/mL). Briefly, 200,000 cells per conditions were stained using H3L3 (10 μg/mL) or Mota (10 μg/mL) used as negative control. Primary antibodies were detected using an Alexa fluor 647-conjugated human-specific secondary antibody. Data were acquired using Cytoflex B2R2V0 (Beckman Coulter) and analyzed using CytExpert 2.1 and FlowJo v10. CLDN1 expression is shown as the difference of the mean fluorescence intensities of cells stained with H3L3 and cells stained with Mota.

[2] = system: Human Renal Epithelial Cells (HREpic); assay: HREpic 3D-culture proliferation/viability (ATP quantification); type: cell-based; conditions: TNFα 10 ng/mL, 10 μg/mL antibody, 6 days, preliminary data
Experimental: as §1
H3L3 Treatment. For 2D-culture, cells were seeded in 24-well plates coated with Poly-L-Lysine at a cell density of 5.10^4 cells/well. After 24 hours, the cells were treated with TNFα 10 ng/mL and Mota (10 μg/mL) or H3L3 (10 μg/mL). After 3 days, the cells were again treated with TNFα and antibody for 3 more days. After 6 days of treatment in total, the cells were lysed to measure gene expression by qRT-PCR. For 3D-culture, cells were seeded in 96-well ultra-low attachment plates (Corning, Sigma Aldrich, France) at a cell density of 5×10^3 cells/well. The same treatment as described above was applied for 6 days. Cell viability was assessed by ATP quantification using CellTitreGlo (Promega) according to manufacturer's instructions.
Statistics. Data are presented as the mean±s.d. and were analyzed by the unpaired Student's t-test or the two-tailed Mann-Whitney test as indicated after determination of distribution by the Shapiro-Wilk normality test. All experiments were performed at least in triplicates for 2D-culture and quadruplicates for 3D-culture. Data are considered as significant at p<0.05. Statistical analyzes for in vitro experiments were performed with GraphPad Prism 6 software.

[3] = molecular target: T2, CLDN1 expressed on RPTEC/TERT1 cells (Homo sapiens, UniProt O95832); assay: Flow cytometry binding study on RPTEC/TERT1 kidney cells
T2 construct: endogenous in cells; host or cells: RPTEC/TERT1
T2 sequence (O95832 1-211): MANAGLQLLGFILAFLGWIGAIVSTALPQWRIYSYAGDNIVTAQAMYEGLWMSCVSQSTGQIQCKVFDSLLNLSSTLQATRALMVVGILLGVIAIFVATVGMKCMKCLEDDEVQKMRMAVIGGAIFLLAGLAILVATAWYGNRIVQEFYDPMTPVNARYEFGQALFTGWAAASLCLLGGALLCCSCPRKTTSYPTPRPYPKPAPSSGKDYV
Experimental: (§2) Cell Lines. The kidney cancer cell line RPTEC/TERT1 and lung cancer cell line A549, both originally from ATCC, were obtained from IGBMC in a collaboration with Dr. Irwin Davidson and Dr. Izabella Sumara, respectively. Both cell lines were cultured according to provider's instructions: the RPTEC/TERT1 kidney cancer cells were grown in ATCC-formulated DMEM:F12 Medium supplemented with hTERT RPTEC Growth Kit and 0.1 mg/mL G418. The A549 lung cancer cells were grown in ATCC-formulated F-12K Medium supplemented with 10% fetal bovine serum.
(§3) Binding Studies. Cells were de-attached using a solution of EDTA (4 mM) and re-suspended in PBS containing 1% FBS at 4° C. Then, 150,000 cells were incubated with increasing concentrations of the humanized H3L3 CLDN1-specific mAb (see WO/2017/162678) and the binding signals were read by flow cytometry after incubation with PE-labelled anti-human using a dilution of 1:100 and analyzed with Cytoflex and FlowJo V10. Two washes with PBS containing 1% FBS were performed after every antibody incubation. A binding curve for each cell line was built using the PE median fluorescence intensity (MFI) and the Kd of the interaction was calculated by applying the Michaelis-Menten mathematical model in R 3.5.1.

[4] = system: Adriamycin-induced nephropathy; assay: Adriamycin-induced nephropathy model; type: in vivo, BALB/c mice; conditions: 250 μg/mouse i.p. twice weekly, 27 days; versus control group and valproic acid group
Experimental: The Adriamycin-induced nephropathy (ADR) model is a well-characterized disease model for chronic kidney disease and mirrors human kidney disease caused by primary focal segmental glomerulosclerosis (FSGS). The Adriamycin-induced nephropathy is a mouse model the mimics human FSGS (Focal Segmental Glomerulosclerosis). An efficacy study was performed at SMC lab (Tokyo, Japan) in accordance with local standards of ethics and animal care. Induction of Adriamycin-induced nephropathy model started on Day 0, when mice were intravenously administered adriamycin (doxorubicin hydrochloride, Wako Pure Chemical Industries, Ltd., Japan) in 0.9% saline at a dose of 13 mg/kg, in a volume of 10 mL/kg.
Groups of eight Adriamycin-induced nephropathic male BALB/c mice were administered either vehicle [saline], anti-CLDNA 1 mAb H3L3 (250 μg/mouse, twice weekly) intraperitoneally, or VPA (=valproic acid, provided at 0.4% in the drinking water) as a positive control for 27 days. Serum creatinine and BUN (blood urea nitrogen) was measured by FUJI DRI-CHEM 7000 (Fujifilm Corporation, Japan).

[5] = molecular target: T3, CLDN1 expressed on A549 cells (Homo sapiens, UniProt O95832); assay: Flow cytometry binding study on A549 lung cells; design: unit not given here
T3 construct: endogenous in cells; host or cells: A549
T3 sequence (O95832 1-211): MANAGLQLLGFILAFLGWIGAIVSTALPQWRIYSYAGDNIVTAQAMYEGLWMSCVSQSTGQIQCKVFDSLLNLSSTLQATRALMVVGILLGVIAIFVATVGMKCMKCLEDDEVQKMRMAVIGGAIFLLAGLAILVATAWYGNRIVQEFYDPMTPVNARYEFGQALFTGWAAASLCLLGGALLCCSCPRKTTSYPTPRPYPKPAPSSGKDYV
Experimental: as §2, §3

TGF-β signalling = assay: TGF-β signaling reporter assay in A549 cells; type: cell-based; conditions: 50 μg/mL for 3 hours, TGF-β 10 ng/mL
Experimental: TGF-β Signaling Reporter Assay. A549 cells were transfected with TGF-β signalling reporter plasmid pGLA4.48[luc2P/SBE/Hygro] (Promega) using Fugene according to the manufacturer's instructions. Following transfection, the cells were supplemented with fresh medium containing control or CLDN1-specific mAb (50 μg/mL) for 3 hours at 37° C. Fresh medium was supplemented to the cells containing TGF-β (10 ng/mL) (Sigma) for 3 hours at 37° C. The plate was incubated for 15 minutes at room temperature followed by addition of ONE-Glo substrate (Promega) for 3 minutes at room temperature. Luminescence of the supernatants was read using a Berthold microplate reader.

B1: H3L3: humanized anti-Claudin-1 monoclonal antibody, two VH of SEQ ID NO: 3 and two VL of SEQ ID NO: 6 (antibody, V domains shown)
VH: QVQLVESGGGVVQPGRSLRLSCLGSGFSFSSYGMNWVRQAPGKGLEWVASISPSGSYFYYADSVKGRFTISRDNSKNTLYLQMTSLRAEDTAIYYCARLPGFNPPFDHWGQGTLVTVSS
VL: DIQMTQSPSSLSASVGDRVTITCKASQNVGGNVDWYQWKPGKAPKLLIYGASNRYTGVPDRFRGSGSGTDFTLTISSLQPEDVATYYCLQYKNNPWTFGGGTKVEIK
modifications: humanized variable heavy chain H3; humanized variable light chain L3
- binding to PECs CLDN1 [1]: binds to PECs CLDN1
- cell proliferation/viability [2]: slight decrease
- concentration saturating the epitope [3]: 50 µg/mL
- serum BUN [4]: non-significant but pronounced reduction
- serum creatinine [4]: non-significant but pronounced reduction
- concentration saturating the epitope [5]: 20
- TGF-β reporter activity (TGF-β signalling): significant reduction

From patent US20230138047A1, “ANTI-CLAUDIN-1 MONOCLONAL ANTIBODIES FOR THE PREVENTION AND TREATMENT OF FIBROTIC DISEASES” (Université de Strasbourg, priority 2019, published 2023)
